Source: PMC4876929 (Nature, 2015)
Changes are numbered by the printed parent chain. In names and notes the source's numbering stands. Where two headings read alike, the source gives them in different places.

B1: Fluc channel from Bordetella pertussis (Bpe), R29K/E94C, Hg-labelled (natural protein)
chain: MLTYAPLNFIAIGIGATLGAWLRWVLGLKLNGAGWPWGTLTANLVGGYLIGVMVALIASHPEWPAWIRLAAVTGFLGGLTTFSTFSAETVDMLCRGVYATAAAYAGASLAGSLAMTGLGLATVRLLLR
modifications: Hg at the unique cysteine (E94C), labelled with Hg(II) acetate
B2: Fluc channel from Bordetella pertussis (Bpe), R29K/E94S (natural protein, UniProt Q7VYU0 1-128, looked up)
chain: B1 chain with C94S

How the values were obtained:
crystal structure [1] = molecular target: the molecule itself; test: crystal structure
crystal structure [2] = molecular target: the molecule itself; test: crystal structure; remark: listed apart in the source

| Protein | stoichiometry N (crystal structure [1]) | stoichiometry N (crystal structure [2]) |
| --- | --- | --- |
| B1 | 2 | – |
| B2 | – | 2 |
